Data reported in publication PMC10341776.

Target: chloroplast FOF1-ATP synthase from spinach chloroplasts (spinach (Spinacia oleracea)) (UniProt P06450)
Assay: SAXS; AEX-purified cFOF1 dialysed overnight against 30 mM HEPES, 2 mM MgCl2, 0.04% (w/v) tPCC-α-M, 450 mM NaCl; room temperature; fit with a mixture of monomers and docked dimers (OLIGOMER); monomer to dimer

fraction of dimeric cFOF1 (model with F1/F1 dimers): 68%
stoichiometry N: 2
Substance: chloroplast FOF1-ATP synthase from spinach chloroplasts, P06450 1-507; P00825 1-498; P05435 42-364; P00833 1-134; P11402 71-257; P06451 1-247; P06453 1-184; P31853 76-222; P69447 1-81
